Measurements: patent publication US20250333496A1 (Novo Nordisk, published 2025)
Positions count from the first letter of the chain named. “And” between values parts separate entries of the source, which are not always exact repeats. Equal entries are not always repeated. One block for each binder: values may come before it.

Key:
[1] = target: T1, human IL-6 (mature hIL-6) (human, UniProt P05231 30-212); assay: cell-based or functional assay
[2] = target: T2, recombinant human HPC4-tagged IL-6 (human, UniProt P05231 30-212); assay: SPR, HPC4-IL-6 captured on anti-HPC4 antibody, VHH injected, 25 C, 1:1 model
T2 construct: captured on an anti-HPC4 antibody in SPR; also called HPC4-human IL6
T2 sequence (P05231 other isoform, or with tags, fused parts or gaps limits assumed): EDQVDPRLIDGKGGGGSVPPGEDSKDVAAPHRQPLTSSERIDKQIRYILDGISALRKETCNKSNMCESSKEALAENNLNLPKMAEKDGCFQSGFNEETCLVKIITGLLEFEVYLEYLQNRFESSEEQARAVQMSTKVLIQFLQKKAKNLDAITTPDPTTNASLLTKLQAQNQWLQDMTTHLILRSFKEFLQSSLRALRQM
Protocol: Binding of purified anti-IL-6 VHHs to recombinant human HPC4-tagged IL-6 (SEQ ID NO: 98) was probed by Surface Plasmon Resonance (SPR).
IL-6 was captured at a flow rate of 10 μL/min for 30 seconds.
Subsequently, concentration series of VHH polypeptides according to Table 33 were injected at a flow rate of 50 μL/min for 200 seconds to allow for binding to […] followed by 600 seconds running buffer (10 mM HEPES, 150 mM NaCl, 5 mM CaCl₂, 0.05% (v/v) Surfactant P20, 1 mg/mL bovine serum albumin, pH 7.4) injection allowing dissociation from IL-6. The running buffer was also used for dilution of anti-IL-6 VHHs and IL-6. Regeneration of the chip was achieved using a regeneration buffer consisting of 50 mM EDTA in running buffer without CaCl₂, 30 seconds contact time, and a 30 μL/min flow rate applied twice to the surface. The binding data were collected at 25° C. at either a Biacore instrument (Cytiva AB, Uppsala) or a Bruker SPR32 (Bruker Daltonics). Data were analysed according to a 1:1 model using either BiaEvaluation or Biacore Insight Evaluation (Cytiva AB, Uppsala) or Bruker Analyser (Bruker Daltonics).

[3] = target: T1, human IL-6 (mature hIL-6); assay: cell-based or functional assay; remark: listed apart in the source

T1 sequence (P05231 30-212): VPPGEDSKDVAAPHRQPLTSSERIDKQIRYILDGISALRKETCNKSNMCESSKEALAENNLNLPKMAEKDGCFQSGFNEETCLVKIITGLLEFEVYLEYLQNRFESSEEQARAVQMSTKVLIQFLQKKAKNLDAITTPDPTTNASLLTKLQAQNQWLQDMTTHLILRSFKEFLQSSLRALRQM

B1: Polypeptide_22 (VHH)
VHH: EVQLVESGGGLVQPGGSLKLSCTTSGRRFSEYAVGWFRQGPGKEREFVADIGEQAENTWYAESVLGRFTISRDDAKNTVYLQMDSLKPEDTAVYYCAADKYGVGGNAQGYYDSWGQGTQVTVSS
notes: VHH_1.2 with C-terminal His tag extension E1; also called [VHH_1.2]-E1
IC 50 (nM), reporter gene assay, 0% HSA [1]: 0.029 nM
Kd [2]: 7.21 pM
koff [2]: 0.000147 s⁻¹
kon [2]: 2.03e+07 M⁻¹ s⁻¹

B2: Polypeptide_56 (VHH)
VHH: B1 VHH with G40A, E62H, Q82E, S85G
IC50 (nM), STAT3-luc reporter gene assay [3]: 0.168 nM
Relative IC50 to Reference Polypeptide_29 [3]: 4.9 fold

B4: Polypeptide_57 (VHH)
VHH: B1 VHH with G40A, L65K, Q82E, S85G
IC50 (nM), STAT3-luc reporter gene assay [3]: 0.08 nM
Relative IC50 to Reference Polypeptide_29 [3]: 2.3 fold

B6: Polypeptide_52 (VHH)
VHH: B1 VHH with R28T, G40A, Q82E, S85G
IC50 (nM), STAT3-luc reporter gene assay [3]: 0.055 nM
Relative IC50 to Reference Polypeptide_29 [3]: 1.6 fold

B7: Polypeptide_53 (VHH)
VHH: B1 VHH with E31S, G40A, Q82E, S85G
IC50 (nM), STAT3-luc reporter gene assay [3]: 0.05 nM
Relative IC50 to Reference Polypeptide_29 [3]: 1.5 fold

B10: Compound 3 (VHH)
VHH: B1 VHH with E1Q, V2L, L11W, K19Q, G40A, K43Q, E62H, D74E
modifications: Chem. 24 (C16 diacid substituent) on Cys in position 4 and on Cys in position 6 of the extension (SEQ ID NO: 72); found mass includes position 1 Gln to pyroGlu formation
IC 50 (nM), reporter gene assay, 0% HSA [1]: 0.029 nM
IC 50 (nM), reporter gene assay, 1% HSA [1]: 0.029 nM

B12: Polypeptide_51 (VHH)
VHH: B1 VHH with L11W, G40A, Q82E, S85G
IC50 (nM), STAT3-luc reporter gene assay [3]: 0.053 nM
Relative IC50 to Reference Polypeptide_29 [3]: 1.5 fold

B13: Polypeptide_59 (VHH)
VHH: B1 VHH with G40A, Q82E, D84N, S85G
IC50 (nM), STAT3-luc reporter gene assay [3]: 0.043 nM
Relative IC50 to Reference Polypeptide_29 [3]: 1.2 fold

B14: Polypeptide_60 (VHH)
VHH: B1 VHH with G40A, Q82E
IC50 (nM), STAT3-luc reporter gene assay [3]: 0.057 nM
Relative IC50 to Reference Polypeptide_29 [3]: 1.7 fold

B15: Polypeptide_54 (VHH)
VHH: B1 VHH with G40A, Q54N, Q82E, S85G
IC50 (nM), STAT3-luc reporter gene assay [3]: 0.15 nM
Relative IC50 to Reference Polypeptide_29 [3]: 4.4 fold

B16: Polypeptide_61 (VHH)
VHH: B1 VHH with G40A, Q82E, S85G, K100S
IC50 (nM), STAT3-luc reporter gene assay [3]: 0.054 nM
Relative IC50 to Reference Polypeptide_29 [3]: 1.6 fold

Second part, the binder after the results:

IC50 (nM), STAT3-luc reporter gene assay [3]: 0.278 nM
Relative IC50 to Reference Polypeptide_29 [3]: 8.1 fold
B3: Polypeptide_55 (VHH)
VHH: B1 VHH with G40A, E56D, Q82E, S85G

IC50 (nM), STAT3-luc reporter gene assay [3]: 0.13 nM
Relative IC50 to Reference Polypeptide_29 [3]: 3.8 fold
B5: Polypeptide_62 (VHH)
VHH: B1 VHH with G40A, Q82E, S85G, N106G

IC 50 (nM), reporter gene assay, 0% HSA [1]: 0.018 nM
IC 50 (nM), reporter gene assay, 1% HSA [1]: 0.016 nM
Kd [2]: 16.1 pM and 21.4 pM
koff [2]: 7.82e-05 s⁻¹ and 9.95e-05 s⁻¹
kon [2]: 4.94e+06 M⁻¹ s⁻¹ and 4.65e+06 M⁻¹ s⁻¹
B8: Compound 6 (VHH)
VHH: B1 VHH with K19Q, E62H
modifications: Chem. 24 (C16 diacid substituent) on Cys in position 4 and on Cys in position 6 of the extension (SEQ ID NO: 72)
notes: Polypeptide derivative; extension E2 at the C-terminus of the VHH; also called VHH_1.3-E2 with 2x Chem. 24

IC50 (nM), STAT3-luc reporter gene assay [3]: 0.049 nM
Relative IC50 to Reference Polypeptide_29 [3]: 1.4 fold
B9: Polypeptide_50 (VHH)
VHH: B1 VHH with V2L, G40A, Q82E, S85G

IC 50 (nM), reporter gene assay, 0% HSA [1]: 0.021 nM
B11: Polypeptide_46 (VHH)
VHH: B1 VHH with E1Q, V2L, L11W, K19Q, G40A, K43Q, E62H, D74E
